Reference: publication PMC9637919
Like-named read-outs stand apart in the source and are kept apart here.

Key:
Test in all cases: EMSA
[1] = molecular target: T1, Csy complex (type I-F surveillance complex) (UniProt Q02ML9;Q02MM0;Q02MM1;Q02MM2 1-434;1-327;1-342;1-187)
T1 sequence 1: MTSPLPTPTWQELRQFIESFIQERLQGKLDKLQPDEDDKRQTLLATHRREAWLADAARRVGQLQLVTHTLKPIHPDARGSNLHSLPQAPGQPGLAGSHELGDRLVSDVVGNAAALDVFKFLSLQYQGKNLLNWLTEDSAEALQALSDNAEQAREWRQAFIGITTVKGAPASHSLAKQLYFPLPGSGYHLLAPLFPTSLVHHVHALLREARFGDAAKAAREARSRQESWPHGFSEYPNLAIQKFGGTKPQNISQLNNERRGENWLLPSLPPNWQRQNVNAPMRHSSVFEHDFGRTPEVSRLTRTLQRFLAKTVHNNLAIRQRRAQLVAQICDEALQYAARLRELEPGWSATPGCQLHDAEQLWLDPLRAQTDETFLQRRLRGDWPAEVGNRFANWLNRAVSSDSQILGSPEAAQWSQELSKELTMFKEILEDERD
T1 sequence 2: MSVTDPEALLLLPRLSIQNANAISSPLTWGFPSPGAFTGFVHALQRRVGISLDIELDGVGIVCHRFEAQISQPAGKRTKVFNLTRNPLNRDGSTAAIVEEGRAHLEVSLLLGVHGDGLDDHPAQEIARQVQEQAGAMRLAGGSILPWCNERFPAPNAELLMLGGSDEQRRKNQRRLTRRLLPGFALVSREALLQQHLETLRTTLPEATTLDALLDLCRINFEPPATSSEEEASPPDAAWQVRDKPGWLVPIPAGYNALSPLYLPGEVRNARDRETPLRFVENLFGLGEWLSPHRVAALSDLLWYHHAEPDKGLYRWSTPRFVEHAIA
T1 sequence 3: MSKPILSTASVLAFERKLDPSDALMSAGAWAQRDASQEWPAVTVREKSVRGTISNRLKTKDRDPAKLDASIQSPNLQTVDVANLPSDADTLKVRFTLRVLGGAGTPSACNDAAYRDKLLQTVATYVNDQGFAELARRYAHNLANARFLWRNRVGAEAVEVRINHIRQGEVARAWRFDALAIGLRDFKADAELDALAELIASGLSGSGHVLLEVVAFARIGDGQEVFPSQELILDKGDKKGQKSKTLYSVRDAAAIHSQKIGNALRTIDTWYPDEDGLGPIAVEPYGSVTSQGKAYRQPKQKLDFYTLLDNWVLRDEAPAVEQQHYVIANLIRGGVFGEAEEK
T1 sequence 4: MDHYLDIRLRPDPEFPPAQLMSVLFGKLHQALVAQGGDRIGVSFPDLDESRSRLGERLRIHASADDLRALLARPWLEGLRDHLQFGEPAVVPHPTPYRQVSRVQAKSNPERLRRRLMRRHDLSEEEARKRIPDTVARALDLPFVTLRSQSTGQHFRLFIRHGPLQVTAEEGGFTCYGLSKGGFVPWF

[2] = molecular target: T2, Csy complex (type I-F surveillance complex);Cas2/3 (;, UniProt Q02ML9;Q02MM0;Q02MM1;Q02MM2;Q02ML8 1-434;1-327;1-342;1-187;1-1076, |)
[3] = molecular target: Csy M (Cas8f R299G/R302A);Cas2/3 (;, UniProt Q02ML9;Q02MM0;Q02MM1;Q02MM2;Q02ML8 1-434;1-327;1-342;1-187;1-1076, R299G;R302A|)
[4] = molecular target: T2, Csy complex (type I-F surveillance …); remark: listed apart in the source

B1: 54-bp target dsDNA, 5'-FAM TS (dsDNA)
DNA 1: GGAAGCCATCCAGGTAGACGCGGACATCAAGCCCGCCGTGAAGGTGCAGCTGCT
DNA 2: AGCAGCTGCACCTTCACGGCGGGCTTGATGTCCGCGTCTACCTGGATGGCTTCC
[1]
  Kd: 9.46 ± 0.82 nM
[2]
  binding result: binds

B2: 54-bp dsDNA bubble, 5'-FAM TS (dsDNA)
DNA 1: B1 DNA 1
DNA 2: AGCAGCTGCACCAAGTGCCGCCGCTTGATGTCCGCGTCTACCTGGATGGCTTCC
[1]
  Kd: 8.15 ± 0.62 nM
[3]
  binding result: binds
[4]
  binding result: binds
